Measured values taken from the Human Domainome abundance scans (Beltran et al. 2025).
± gives the uncertainty stated by the source.

B1: Pituitary-specific positive transcription factor 1, residues 130 to 198; numbered along this chain, P28069 (parent)
chain: RELEKFANEFKVRRIKLGYTQTNVGEALAAVHGSEFSQTTICRFENLQLSFKNACKLKAILSKWLEEAE

Variants of: B1
Test: abundance fitness (aPCA) (normalised: wild type 0, dead -1); higher = more abundant; growth selection in yeast, the domain comes from the species named
Conditions: Homo sapiens

Variant | abundance fitness
H32Y | 0.276 ± 0.14
S37A | -0.607 ± 0.076
S37C | -0.281 ± 0.071
A30G | -0.298 ± 0.054
A30R | 0.042 ± 0.049
A30N | -0.219 ± 0.071
A30V | -0.444 ± 0.087
A30K | -0.008 ± 0.1
A30S | -0.138 ± 0.058
A30I | -0.309 ± 0.15
A30H | -0.357 ± 0.08
A30D | -0.457 ± 0.11
A30L | -0.217 ± 0.067
A30F | -0.726 ± 0.16
A30E | -0.128 ± 0.073
A30T | -0.23 ± 0.085
A30P | -0.468 ± 0.091
A30C | -0.127 ± 0.1
A30Y | -0.633 ± 0.13
A30M | -0.261 ± 0.075
A27Q | 0.016 ± 0.093

Variant | abundance fitness
A27Y | -0.144 ± 0.08
A27K | -0.483 ± 0.1
A27I | -0.166 ± 0.15
A27T | -0.18 ± 0.089
A27F | -0.437 ± 0.17
A27C | -0.289 ± 0.28
A27L | -0.315 ± 0.077
A27S | -0.106 ± 0.051
A27E | 0.137 ± 0.095
A27W | 0.053 ± 0.093
A27D | -0.221 ± 0.17
A27N | -0.74 ± 0.41
A27P | -0.868 ± 0.23
A27G | -0.739 ± 0.23
A27V | -0.662 ± 0.17
G25Y | 0.101 ± 0.12
G25S | 0.198 ± 0.045
G25R | -0.813 ± 0.087
G25P | -0.776 ± 0.15
G25Q | -0.171 ± 0.074
G25V | 0.085 ± 0.045

Variant | abundance fitness
G25T | -0.325 ± 0.12
G25W | -0.001 ± 0.066
G25N | -0.911 ± 0.38
E26N | -0.083 ± 0.1
E26A | -0.332 ± 0.49
E26C | -0.476 ± 0.21
E26F | -0.849 ± 0.29
E26H | -0.486 ± 0.12
E26V | -0.461 ± 0.11
E26G | -0.771 ± 0.29
E26D | 0.205 ± 0.13
E26Q | -0.527 ± 0.36
E26W | -0.493 ± 0.12
F36I | 0.128 ± 0.14
F36N | -0.758 ± 0.49
F36H | -0.747 ± 0.41
F36G | -1.05 ± 0.2
F36M | -0.31 ± 0.085
F36Q | -0.517 ± 0.097
F36W | -0.229 ± 0.082
F36T | -0.512 ± 0.13

Variant | abundance fitness
F36C | -0.526 ± 0.33
F36P | -0.702 ± 0.16
F36L | -0.393 ± 0.049
F36A | -0.496 ± 0.093
F36K | -0.744 ± 0.13
L28G | -0.715 ± 0.14
L28Y | -0.711 ± 0.18
L28A | -0.799 ± 0.23
L28D | -0.162 ± 0.11
L28R | -0.554 ± 0.068
L28I | -0.276 ± 0.34
L28M | -0.824 ± 0.27
L28S | -0.732 ± 0.16
L28C | -0.889 ± 0.23
L28T | -0.226 ± 0.098
L28P | -0.853 ± 0.4
L28E | -0.718 ± 0.21
L28N | -0.863 ± 0.26
G33C | -0.791 ± 0.11
G33P | -0.393 ± 0.075
